# Reference: the supplement of paper PMC10126150
# ± gives the standard deviation of the averaged measurements.
# System: ATP
# Assay: switch fluorescence ratio, 500 uM ATP over buffer (Cy3 cluster intensity, sum of 5 cycles each) (fold (ratio)); higher = stronger signal-on switching upon ATP binding; sequences stand for … in TCGTCGGCAGCGTCAGATGTGTATAAGAGACAGTTTTTTTTTTTTTTTTTTTTTTTTT…TC
# Settings: aptamer strand: ATP DNA aptamer (quencher-CACCTGGGGGAGTATTGCGGAGGAAGG + anchor), 100 nM annealed; ATP concentration: 500 uM
# Procedure, shortened: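 Five buffer/ATP imaging cycles were run on Cy3-labelled switching-strand clusters on a modified Illumina MiSeq flow-cell, with NaOH stripping and re-annealing between cycles. In each cycle, clusters annealed to 100 nM quencher-labelled ATP aptamer were imaged in selection buffer, then after 15 min with 500 uM ATP at 22 °C. Per cluster, the fluorescence ratio is summed target-cycle over summed buffer-cycle Cy3 intensity, averaged per switch-domain sequence. Only clusters within 100-1000 RFU were kept.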
# 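Also: ATP exposure 15 min at 22 °C before imaging.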
sequence,measurement,value
TTATGGTGCT,switch fluorescence ratio,0.945 ± 0.051
TTATGGTTTT,switch fluorescence ratio,1 ± 0.024
TTATGTACGT,switch fluorescence ratio,1.09 ± 0.021
TTATGTACTT,switch fluorescence ratio,1.05 ± 0.021
TTATGTATGC,switch fluorescence ratio,0.95 ± 0.08
TTATGTATTT,switch fluorescence ratio,0.995 ± 0.015
TTATGTCAAA,switch fluorescence ratio,1.01 ± 0.025
TTATGTCAGG,switch fluorescence ratio,1.04 ± 0.015
TTATGTGAGA,switch fluorescence ratio,1.01 ± 0.044
TTATGTGATA,switch fluorescence ratio,0.95571 ± 0.00088
TTATGTGGTG,switch fluorescence ratio,0.974 ± 0.014
TTATGTTCAG,switch fluorescence ratio,1.04 ± 0.034
TTATGTTCGC,switch fluorescence ratio,0.975 ± 0.034
TTATGTTGGG,switch fluorescence ratio,1.013 ± 0.0047
TTATGTTTGT,switch fluorescence ratio,1.01 ± 0.033
TTATGTTTTG,switch fluorescence ratio,0.999 ± 0.026
TTATTAAACG,switch fluorescence ratio,1.015 ± 0.0029
TTATTACCGA,switch fluorescence ratio,1.056 ± 0.0098
TTATTACCTA,switch fluorescence ratio,1.06 ± 0.049
TTATTAGATG,switch fluorescence ratio,0.997 ± 0.018
TTATTAGATT,switch fluorescence ratio,1.01 ± 0.005
TTATTAGCAA,switch fluorescence ratio,1.93 ± 1.4
TTATTAGGGT,switch fluorescence ratio,1 ± 0.022
TTATTATAGT,switch fluorescence ratio,1 ± 0.015
TTATTATGGA,switch fluorescence ratio,1.02 ± 0.011
TTATTATTT,switch fluorescence ratio,0.994 ± 0.11
TTATTCAAAT,switch fluorescence ratio,1.02 ± 0.035
TTATTCGGGA,switch fluorescence ratio,1.02 ± 0.031
TTATTCTCAC,switch fluorescence ratio,1.031 ± 0.0064
TTATTCTGCT,switch fluorescence ratio,1.03 ± 0.03
TTATTGAAA,switch fluorescence ratio,1.023 ± 0.0033
TTATTGAAAA,switch fluorescence ratio,1 ± 0.032
TTATTGACGT,switch fluorescence ratio,1.003 ± 0.0024
TTATTGGCAA,switch fluorescence ratio,1.29 ± 0.34
TTATTGTAT,switch fluorescence ratio,0.988 ± 0.043
TTATTGTGCT,switch fluorescence ratio,0.983 ± 0.031
TTATTGTGGA,switch fluorescence ratio,0.9885 ± 0.0023
TTATTGTTGG,switch fluorescence ratio,0.974 ± 0.014
TTATTGTTGT,switch fluorescence ratio,1 ± 0.014
TTATTTAATT,switch fluorescence ratio,0.998 ± 0.027
TTATTTAGAC,switch fluorescence ratio,1 ± 0.024
TTATTTAGGA,switch fluorescence ratio,0.989 ± 0.027
TTATTTCATG,switch fluorescence ratio,0.984 ± 0.022
TTATTTGAAT,switch fluorescence ratio,1.011 ± 0.0027
TTATTTGGGG,switch fluorescence ratio,1.01 ± 0.056
TTATTTGTGT,switch fluorescence ratio,0.987 ± 0.042
TTATTTTCGT,switch fluorescence ratio,0.973 ± 0.018
TTATTTTGAC,switch fluorescence ratio,1 ± 0.023
TTATTTTTAG,switch fluorescence ratio,1.01 ± 0.035
TTATTTTTGT,switch fluorescence ratio,1.01 ± 0.026
TTCAAAATAG,switch fluorescence ratio,1.12 ± 0.15
TTCAAAGAGT,switch fluorescence ratio,0.994 ± 0.019
TTCAAAGGCC,switch fluorescence ratio,0.981 ± 0.049
TTCAAAGGGG,switch fluorescence ratio,1.09 ± 0.24
TTCAAAGGTG,switch fluorescence ratio,1.41 ± 0.16
TTCAAGACGG,switch fluorescence ratio,0.995 ± 0.023
TTCAAGTTAG,switch fluorescence ratio,1 ± 0.035
TTCAATATGT,switch fluorescence ratio,0.991 ± 0.049
TTCAATGGAA,switch fluorescence ratio,1.03 ± 0.011
TTCAATGGCT,switch fluorescence ratio,0.983 ± 0.046
TTCAATGGGC,switch fluorescence ratio,0.998 ± 0.064
TTCAATTGGT,switch fluorescence ratio,0.974 ± 0.033
TTCAATTTGC,switch fluorescence ratio,1.02 ± 0.033
TTCACGGACC,switch fluorescence ratio,1.455 ± 0.013
TTCAGAAATT,switch fluorescence ratio,1.01 ± 0.011
TTCAGAGACT,switch fluorescence ratio,1 ± 0.034
TTCAGATACC,switch fluorescence ratio,1.04 ± 0.017
TTCAGCATTT,switch fluorescence ratio,1.1 ± 0.068
TTCAGCGCGA,switch fluorescence ratio,1.14 ± 0.014
TTCAGGACTC,switch fluorescence ratio,0.973 ± 0.045
TTCAGGATTA,switch fluorescence ratio,0.9939 ± 0.0091
TTCAGGGGAG,switch fluorescence ratio,0.975 ± 0.04
TTCAGGGGCG,switch fluorescence ratio,1.07 ± 0.13
TTCAGGGTAT,switch fluorescence ratio,1.01 ± 0.037
TTCAGGTAAC,switch fluorescence ratio,1.054 ± 0.0022
TTCAGGTGGT,switch fluorescence ratio,1.06 ± 0.13
TTCAGGTTCT,switch fluorescence ratio,1 ± 0.04
TTCAGGTTTC,switch fluorescence ratio,1 ± 0.037
TTCAGTGTCG,switch fluorescence ratio,1.01 ± 0.073
TTCAGTTAAT,switch fluorescence ratio,1 ± 0.0032
TTCATATAGG,switch fluorescence ratio,0.984 ± 0.021
TTCATATATG,switch fluorescence ratio,0.989 ± 0.018
TTCATATTG,switch fluorescence ratio,0.9923 ± 0.0019
TTCATCCGGT,switch fluorescence ratio,1.52 ± 0.091
TTCATCGTAT,switch fluorescence ratio,1.01 ± 0.015
TTCATGAGTG,switch fluorescence ratio,0.9696 ± 0.0051
TTCATTACGT,switch fluorescence ratio,0.996 ± 0.029
TTCATTGAGT,switch fluorescence ratio,1.028 ± 0.0048
TTCATTGGGG,switch fluorescence ratio,0.99 ± 0.018
TTCATTTCTG,switch fluorescence ratio,1.02 ± 0.039
TTCATTTGTT,switch fluorescence ratio,1.11 ± 0.16
TTCATTTTAG,switch fluorescence ratio,1.02 ± 0.031
TTCCAAAAGG,switch fluorescence ratio,1.02 ± 0.054
TTCCACTTGA,switch fluorescence ratio,1.04 ± 0.047
TTCCAGATTC,switch fluorescence ratio,0.964 ± 0.013
TTCCAGGCAA,switch fluorescence ratio,4.47 ± 0.45
TTCCAGGGGG,switch fluorescence ratio,1.08 ± 0.089
TTCCATATGT,switch fluorescence ratio,0.975 ± 0.021
TTCCATGAGT,switch fluorescence ratio,0.963 ± 0.019
TTCCCATTTT,switch fluorescence ratio,0.995 ± 0.013
TTCCCCAGGG,switch fluorescence ratio,3.63 ± 1.6
TTCCCGGCAG,switch fluorescence ratio,1.38 ± 0.47
TTCCCGGGGA,switch fluorescence ratio,1.24 ± 0.4
TTCCCTAATC,switch fluorescence ratio,1.02 ± 0.067
TTCCCTAGTT,switch fluorescence ratio,1.004 ± 0.0029
TTCCGAAAGA,switch fluorescence ratio,1.11 ± 0.066
TTCCGATGGA,switch fluorescence ratio,1.33 ± 0.26
TTCCGGAAAA,switch fluorescence ratio,1.01 ± 0.05
TTCCGGAGGG,switch fluorescence ratio,1.02 ± 0.063
TTCCGGCGGA,switch fluorescence ratio,1.08 ± 0.026
TTCCGGGCCC,switch fluorescence ratio,1.16 ± 0.041
TTCCGGGCTG,switch fluorescence ratio,1 ± 0.02
TTCCGGGGAT,switch fluorescence ratio,1.04 ± 0.044
TTCCGGGGGT,switch fluorescence ratio,1 ± 0.015
TTCCGGTTCT,switch fluorescence ratio,1.03 ± 0.013
TTCCGTATTT,switch fluorescence ratio,1.15 ± 0.012
TTCCGTTCAG,switch fluorescence ratio,1.03 ± 0.0075
TTCCGTTGGG,switch fluorescence ratio,1.028 ± 0.0032
TTCCTACGAT,switch fluorescence ratio,1.42 ± 0.56
TTCCTATGTG,switch fluorescence ratio,1.01 ± 0.036
TTCCTCCCCT,switch fluorescence ratio,1.7 ± 0.82
TTCCTCGCTT,switch fluorescence ratio,2.75 ± 1.6
TTCCTGAGTT,switch fluorescence ratio,1.16 ± 0.21
TTCCTTTAGG,switch fluorescence ratio,0.98 ± 0.06
TTCCTTTTAC,switch fluorescence ratio,1.16 ± 0.008
TTCGAAGGAA,switch fluorescence ratio,1.1 ± 0.028
TTCGACCTAG,switch fluorescence ratio,0.986 ± 0.014
TTCGACTAGC,switch fluorescence ratio,1.03 ± 0.03
TTCGAGCCGA,switch fluorescence ratio,1.029 ± 0.0064
TTCGAGGGGG,switch fluorescence ratio,1.01 ± 0.031
TTCGCAACAG,switch fluorescence ratio,2.19 ± 0.67
TTCGCAGTCA,switch fluorescence ratio,1.03 ± 0.052
TTCGCCAATG,switch fluorescence ratio,1.07 ± 0.03
TTCGCGCGGT,switch fluorescence ratio,1.04 ± 0.077
TTCGCGCTTT,switch fluorescence ratio,1 ± 0.036
TTCGCTACGG,switch fluorescence ratio,1.05 ± 0.029
TTCGCTGGTA,switch fluorescence ratio,1.15 ± 0.22
TTCGGAGGGC,switch fluorescence ratio,0.996 ± 0.031
TTCGGCTGCA,switch fluorescence ratio,1.08 ± 0.064
TTCGGGACCC,switch fluorescence ratio,1.08 ± 0.1
TTCGGGAGCC,switch fluorescence ratio,1 ± 0.024
TTCGGGATCG,switch fluorescence ratio,0.981 ± 0.057
TTCGGGATTG,switch fluorescence ratio,0.997 ± 0.024
TTCGGGCAGG,switch fluorescence ratio,1.06 ± 0.054
TTCGGGCCGA,switch fluorescence ratio,0.998 ± 0.017
TTCGGGCGAT,switch fluorescence ratio,1.01 ± 0.013
TTCGGGCTGT,switch fluorescence ratio,0.996 ± 0.011
TTCGGGGAT,switch fluorescence ratio,0.982 ± 0.032
TTCGGGGCGC,switch fluorescence ratio,1.03 ± 0.065
TTCGGGGCTT,switch fluorescence ratio,0.983 ± 0.035
TTCGGGTATT,switch fluorescence ratio,1.1 ± 0.2
TTCGGGTGGT,switch fluorescence ratio,1.04 ± 0.05
TTCGGGTTTG,switch fluorescence ratio,1 ± 0.034
TTCGGTAAGG,switch fluorescence ratio,1.02 ± 0.013
TTCGGTAGCG,switch fluorescence ratio,0.996 ± 0.046
TTCGGTCGGG,switch fluorescence ratio,0.987 ± 0.028
TTCGGTTACG,switch fluorescence ratio,1.01 ± 0.011
